Results from US12269859B2, “Synthetic immune receptors and methods of use thereof” (Angeles Therapeutics, Inc., priority 2016, dated 2025).

B1: 012517-O12 (protein)
chain: MALPVTALLLPLALLLHAARPLEGKPIPNPLLGLDSTGSGEDLKNVFPPEVAVFEPSKAEIAHTQKATLVCLATGFYPDHVELSWWVNGKEVHSGVCTDPQPLKEQPALNDSRYCLSSRLRVSATFWQNPRNHFRCQVQFYGLSENDEWTQDRAKPVTQIVSAEAWGRADCGITSASYHQGVLSATILYEILLGKATLYAVLVSALVLMAMVKRKDSRGRAKRSGSGATNFSLLKQAGDVEENPGPTSMALPVTALLLPLALLLHAARPDIQMTQSSSYLSVSLGGRVTITCKASDHINNWLAWYQQKPGNAPRLLISGATSLETGVPSRFSGSGSGKDYTLSITSLQTEDVATYYCQQYWSTPWTFGGGTKLEIKGGGGSGGGGSGGGGSQVQLQQSGAELARPGASVKLSCKASGYTFTSYWMQWVKQRPGQGLEWIGAIYPGDGDTRYTQKFKGKATLTADKSSSTAYMQLSSLASEDSAVYYCARGKVYYGSNPFAYWGQGTLVTVSATREQKLISEEDGSGIQNPDPAVYQLRDSKSSDKSVCLFTDFDSQTNVSQSKDSDVYITDKCVLDMRSMDFKSNSAVAWSNKSDFACANAFNNSIIPEDTFFPSSDVPCDVKLVEKSFETDTNLNFQNLSVIGFRILLLKVAGFNLLMTLRLWSSRAKRSGSGVKQTLNFDLLKLAGDVESNPGPSRGHMTEYKPTVRLATRDDVPRAVRTLAAAFADYPATRHTVDPDRHIERVTELQELFLTRVGLDIGKVWVADDGAAVAVWTTPESVEAGAVFAEIGPRMAELSGSRLAAQQQMEGLLAPHRPKEPAWFLATVGVSPDHQGKGLGSAVVLPGVEAAERAGVPAFLETSAPRNLPFYERLGFTVTADVEVPEGPRTWCMTRKPGA
B2: 012517-N12 (protein)
chain: MALPVTALLLPLALLLHAARPLEGKPIPNPLLGLDSTGSGEDLKNVFPPEVAVFEPSKAEIAHTQKATLVCLATGFYPDHVELSWWVNGKEVHSGVCTDPQPLKEQPALNDSRYCLSSRLRVSATFWQNPRNHFRCQVQFYGLSENDEWTQDRAKPVTQIVSAEAWGRADCGITSASYHQGVLSATILYEILLGKATLYAVLVSALVLMAMVKRKDSRGRAKRSGSGATNFSLLKQAGDVEENPGPTSMALPVTALLLPLALLLHAARPDVVMTQSPLSLPVTPGEPASISCRSSQSLVHSNGNTYLHWYLQKPGQSPQLLIYKVSNRFSGVPDRFSGSGSGTDFTLKISRVEAEDVGVYFCSQSTHVPPFTFGGGTKVEIKGGGGSGGGGSGGGGSEVQLVESGGGLVQPGGSLRLSCAASGFTFSDYYMAWVRQAPGKGLEWVADINYDGGSTYYLDSLKSRFTISRDNAKNSLYLQMNSLRAEDTAVYYCARDRGYYFDYWGQGTLVTVSSTREQKLISEEDGSGIQNPDPAVYQLRDSKSSDKSVCLFTDFDSQTNVSQSKDSDVYITDKCVLDMRSMDFKSNSAVAWSNKSDFACANAFNNSIIPEDTFFPSSDVPCDVKLVEKSFETDTNLNFQNLSVIGFRILLLKVAGFNLLMTLRLWSSRAKRSGSGVKQTLNFDLLKLAGDVESNPGPSRGHMTEYKPTVRLATRDDVPRAVRTLAAAFADYPATRHTVDPDRHIERVTELQELFLTRVGLDIGKVWVADDGAAVAVWTTPESVEAGAVFAEIGPRMAELSGSRLAAQQQMEGLLAPHRPKEPAWFLATVGVSPDHQGKGLGSAVVLPGVEAAERAGVPAFLETSAPRNLPFYERLGFTVTADVEVPEGPRTWCMTRKPGA

System: target antigen-expressing cell line
Assay: Jurkat NFAT-GFP assay, coculture with target cell lines expressing the respective target antigen (summary Table 10A)
Type: cell-based, human
Parameters: key: The signs +/−, +, 2+ etc. after the name of the cell lines indicate the relative degree of positivity on the Jurkat-NFAT-GFP assay as measured by the % GFP positive cells; +: relative degree of positivity on the Jurkat-NFAT-GFP assay as measured by the % GFP positive cells; 2+: relative degree of positivity on the Jurkat-NFAT-GFP assay as measured by the % GFP positive cells
How it was run: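 Jurkat cells carrying an NFAT-site IL-2 promoter driving GFP were lentivirally transduced with SIRs, puromycin-selected, then cocultured with antigen-expressing target cells at E:T about 1:2 for about 4–18 hours. GFP induction was read by flow cytometry as % GFP-positive cells versus parental Jurkat-NFAT-GFP.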

Molecule	NFAT-GFP ASSAY Positive Cell lines (coculture with L363 cells)	NFAT-GFP ASSAY Positive Cell lines (coculture with U266 cells)
B1	+/−	+
B2	+	2+
